The text below walks through data of publication PMC4286497.

This data set relates to Nc1ncnc2c1ncn2[C@@H]1O[C@H](COP(=O)(O)OP(=O)(O)OP(=O)(O)O)[C@@H](O)[C@H]1O. Nature of the data set: purified protein.
Where [1] appears, read: saturating taxol-stabilized MTs, no ATPγS, pH 7.2, 2 mM MgCl2.

As usually defined, the Km is the substrate concentration at which the rate is half of its maximum. For orientation: kcat means the maximal rate divided by the concentration of active sites.

Turning to “WT dynein (GST-Dyn1_331kD) (Saccharomyces cerevisiae S288C)”, under setting [1], the Km was determined as 46 ± 5 µM and the kcat came to 17.0 ± 0.5 s⁻¹. As to “WT dynein (GST-Dyn1_331kD) (Saccharomyces cerevisiae S288C; K2424A)”, for the setting “pH 7.2”, the Km was found to be 38 ± 3 µM.
